From patent US20210238268A1 (ATARGA, published 2021)

What follows are binders tested against T1, human Complement component 5 (C5) (human, UniProt P01031 19-1676, limits assumed) (assay: ELISA, binding to human C5 at pH 7.4 (C5 ELISA, absorbance at 450 nm)).
T1 construct: also called human C5
Experimental: The exemplary antibodies were tested for binding to human C5 at pH 7.4 using ELISA.

T1 sequence (P01031 19-1676 limits assumed): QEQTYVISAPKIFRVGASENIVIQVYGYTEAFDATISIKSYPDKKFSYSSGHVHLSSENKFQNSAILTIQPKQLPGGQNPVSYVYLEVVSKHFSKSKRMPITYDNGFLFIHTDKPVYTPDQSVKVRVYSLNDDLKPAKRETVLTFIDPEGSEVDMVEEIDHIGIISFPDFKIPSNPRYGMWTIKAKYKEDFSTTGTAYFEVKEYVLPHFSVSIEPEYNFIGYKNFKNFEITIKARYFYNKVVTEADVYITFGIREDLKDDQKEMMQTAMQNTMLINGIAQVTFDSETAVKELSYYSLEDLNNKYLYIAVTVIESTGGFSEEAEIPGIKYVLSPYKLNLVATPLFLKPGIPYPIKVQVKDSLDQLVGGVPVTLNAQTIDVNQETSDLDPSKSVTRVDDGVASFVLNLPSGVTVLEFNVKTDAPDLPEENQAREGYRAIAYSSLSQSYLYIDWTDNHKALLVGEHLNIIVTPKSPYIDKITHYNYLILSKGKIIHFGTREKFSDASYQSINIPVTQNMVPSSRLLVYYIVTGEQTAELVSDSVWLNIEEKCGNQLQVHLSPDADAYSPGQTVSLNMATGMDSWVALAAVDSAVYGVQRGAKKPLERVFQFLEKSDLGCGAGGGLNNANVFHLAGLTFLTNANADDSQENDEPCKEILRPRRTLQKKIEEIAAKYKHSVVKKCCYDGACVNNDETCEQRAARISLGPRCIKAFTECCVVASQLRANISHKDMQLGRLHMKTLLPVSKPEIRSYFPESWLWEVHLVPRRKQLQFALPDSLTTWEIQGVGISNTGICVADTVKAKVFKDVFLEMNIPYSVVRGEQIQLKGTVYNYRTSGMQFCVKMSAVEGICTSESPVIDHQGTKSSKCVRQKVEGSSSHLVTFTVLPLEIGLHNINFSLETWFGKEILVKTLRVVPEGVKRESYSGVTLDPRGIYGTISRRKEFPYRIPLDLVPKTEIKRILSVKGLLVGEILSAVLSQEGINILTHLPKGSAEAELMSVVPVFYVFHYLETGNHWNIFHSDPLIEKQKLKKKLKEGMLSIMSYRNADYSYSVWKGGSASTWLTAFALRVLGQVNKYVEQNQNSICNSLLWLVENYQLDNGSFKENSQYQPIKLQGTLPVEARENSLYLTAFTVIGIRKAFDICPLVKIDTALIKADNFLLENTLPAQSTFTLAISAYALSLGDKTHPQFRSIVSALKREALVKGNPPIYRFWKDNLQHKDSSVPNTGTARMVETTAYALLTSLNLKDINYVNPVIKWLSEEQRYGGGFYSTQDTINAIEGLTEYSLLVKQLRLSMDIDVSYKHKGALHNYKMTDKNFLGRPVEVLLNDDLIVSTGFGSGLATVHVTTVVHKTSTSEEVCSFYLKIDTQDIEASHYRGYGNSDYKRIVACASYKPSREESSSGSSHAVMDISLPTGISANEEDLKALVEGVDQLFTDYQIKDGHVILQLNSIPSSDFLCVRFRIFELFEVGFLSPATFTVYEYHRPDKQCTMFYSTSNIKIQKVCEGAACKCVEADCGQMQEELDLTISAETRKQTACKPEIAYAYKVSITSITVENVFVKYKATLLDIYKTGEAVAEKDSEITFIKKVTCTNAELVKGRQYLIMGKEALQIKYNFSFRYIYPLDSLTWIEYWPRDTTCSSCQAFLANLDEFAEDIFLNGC

Row | Binder | EC50 [µg/mL] | EC50 (read off the curve) [µg/mL]
1 | ATG-001 (antibody, V domains shown, Expressed in Expi CHO cells; also called anti-C5 monoclonal antibody ATG-001) VH: QVQLVQSGAEVKKPGASVKVSCKASGYIFTNYWMQWVRQAPGQGLEWMGEILPGTGSTEYAQKFQGRVTMTRDTSISTVYMEVRRLRSDDTAVYYCARYFFGSTPNWYFDVWGQGTLVTVSS VL: EIVMTQSPSSLSASVGDRVTITCGATENIYGALNWYQHEPGKAPKLLIYGASNLADGVTSRFSGSGSGTDFTLTISTLQPEDFATYYCQNVLNTPLSFGGGTKVDIKR | 0.099 | 
2 | ATG-006 (antibody, V domains shown, Expressed in Expi CHO cells; also called anti-C5 monoclonal antibody ATG-006) VH: QVQLVQSGAEVKKPGASVKVSCKASGYIFTDFYMQWVRQAPGQGLEWMGEILPGTGSTEYAQKFQGRVTMTRDTSISTVYMEVRRLRSDDTAVYYCARYFFGSTPNWYFDVWGQGTLVTVSS VL: EIVMTQSPSSLSASVGDRVTITCGATENIYGALNWYQHEPGKAPKLLIYGASNRYTGVTSRFSGSGSGTDFTLTISTLQPEDFATYYCQQVLNTPVSFGGGTKVDIKR | 0.034 | ~0.03
3 | ATG-005 (antibody, V domains shown, Expressed in Expi CHO cells; also called anti-C5 monoclonal antibody ATG-005) VH: QVQLVQSGAEVKKPGASVKVSCKASGYIFTNYWMQWVRQAPGQGLEWMGEILPGTGSTEYAQKFQGRVTMTRDTSISTVYMEVRRLRSDDTAVYYCARYFFGSTPNWYFDVWGQGTLVTVSS VL: EIVMTQSPSSLSASVGDRVTITCGATENIYGALNWYQHEPGKAPKLLIYGASNRYTGVTSRFSGSGSGTDFTLTISTLQPEDFATYYCQQVLNTPVSFGGGTKVDIKR | 0.041 | ~0.04
4 | ATG-008 (antibody, IgG2, Expressed in Expi CHO cells; also called anti-C5 monoclonal antibody ATG-008) heavy: QVQLVQSGAEVKKPGASVKVSCKASGHIFTDFYMQWVRQAPGQGLEWMGEILPGTGHTEYAQKFQGRVTMTRDTSISTVYMEVRRLRSDDTAVYYCARYFFGSTPNWYFDVWGQGTLVTVSSASTKGPSVFPLAPCSRSTSESTAALGCLVKDYFPEPVTVSWNSGALTSGVHTFPAVLQSSGLYSLSSVVTVPSSNFGTQTYTCNVDHKPSNTKVDKTVERKCCVECPPCPAPPVAGPSVFLFPPKPKDTLMISRTPEVTCVVVDVSQEDPEVQFNWYVDGVEVHNAKTKPREEQFNSTYRVVSVLTVLHQDWLNGKEYKCKVSNKGLPSSIEKTISKAKGQPREPQVYTLPPSQEEMTKNQVSLTCLVKGFYPSDIAVEWESNGQPENNYKTTPPVLDSDGSFFLYSRLTVDKSRWQEGNVFSCSVLHEALHSHYTQKSLSLSLGK light: EIVMTQSPSSLSASVGDRVTITCGATENIYGALNWYQHEPGKAPKLLIYGASNRYTGVTSRFSGSGSGTDFTLTISTLQPEDFATYYCQQVLNTPVSFGGGTKVDIKRTVAAPSVFIFPPSDEQLKSGTASVVCLLNNFYPREAKVQWKVDNALQSGNSQESVTEQDSKDSTYSLSSTLTLSKADYEKHKVYACEVTHQGLSSPVTKSFNRGEC | 0.09 | 
5 | ATG-012 (antibody, IgG2, Same variable regions as ATG-008; Expressed in Expi CHO cells; also called anti-C5 monoclonal antibody ATG-012) heavy: QVQLVQSGAEVKKPGASVKVSCKASGHIFTDFYMQWVRQAPGQGLEWMGEILPGTGHTEYAQKFQGRVTMTRDTSISTVYMEVRRLRSDDTAVYYCARYFFGSTPNWYFDVWGQGTLVTVSSASTKGPSVFPLAPCSRSTSESTAALGCLVKDYFPEPVTVSWNSGALTSGVHTFPAVLQSSGLYSLSSVVTVPSSNFGTQTYTCNVDHKPSNTKVDKTVERKCCVECPPCPAPPVAGPSVFLFPPKPKDTLYITREPEVTCVVVDVSQEDPEVQFNWYVDGVEVHNAKTKPREEQFNSTYRVVSVLTVLHQDWLNGKEYKCKVSNKGLPSSIEKTISKAKGQPREPQVYTLPPSQEEMTKNQVSLTCLVKGFYPSDIAVEWESNGQPENNYKTTPPVLDSDGSFFLYSRLTVDKSRWQEGNVFSCSVMHEALHNHYTQKSLSLSLGK light: EIVMTQSPSSLSASVGDRVTITCGATENIYGALNWYQHEPGKAPKLLIYGASNRYTGVTSRFSGSGSGTDFTLTISTLQPEDFATYYCQQVLNTPVSFGGGTKVDIKRTVAAPSVFIFPPSDEQLKSGTASVVCLLNNFYPREAKVQWKVDNALQSGNSQESVTEQDSKDSTYSLSSTLTLSKADYEKHKVYACEVTHQGLSSPVTKSFNRGEC | 0.52 | 
